Results taken from patent US20170086465A1 (TECHNION RESEARCH AND DEVELOPMENT FOUNDATION, published 2017).

Target: the molecule itself
Test: cell-based or functional assay

B1: C. elegans aff-1 fused to a C-terminal FLAG tag (AFF-1::FLAG) (other)
chain: RLRRHHRKRRFVSSNFDEFYCGESAHAQSQFEEERESNSSKVSSVHSTQFNWGLDNTICIKLQNVVHVLKYERLEQRYPIENSYTFSVPLIDTNCKCHCYGFGTNDVCNVEKYADDRNCTTSSEFPTCYTKYHPAVEPLDCPVTSIPAKACCDIKLKPRDGRMFRAVKLQQPINDMIISHSIFANNSGKMMKVLGPDEFRINLLKGKEQFELTEYHRISVQLVASSPQQQLREGMYYFPEENHNDLREGKINEITESDLDKLGWYRRVGNDWQVATSGLLLRNAHKVVIKNCKGQVHMDQFSGTKNFVLRGTQYNDTYNERRVSDNNFVRSVKVDESSREITIVHEHGTAAQVSLKTDTRPNLTKSQSLLANFTGSITLDHDGNRMLNVTFFGVKGTVHIKMYVNDRKLIATFACTAQFGTSLKDDGSRISLPSTINQAQWVCILPDEQPTKSEICKWIPYEEKAMRTPRQEQSWSKGHSPCSQAECNSLKSGVSDLFPWIMNFDYFMAHGGDFTEWLKIGIHIVIAVGLLLLLILLFTKCLVPLACCSLSIPFKNRNKKKKKKNSSDY
infection of BHK-AFF-1 cells by VSVΔG-AFF-1 pseudovirus (GFP-expressing cells): 600 fold
